Measurements reported in paper PMC12048676.

Assays:
[1] = molecular target: prenylated A647-Cdc42 (human) (UniProt P60953)
[2] = molecular target: biotin-Cy3-Cdc42 (geranylgeranylated) (human) (UniProt P60953); assay: single-molecule dual-color TIRF microscopy, co-recruitment; 100 pM biotin-Cy3-Cdc42:A647-RhoGDI1 complex, imaged <2 min after dilution, captured on neutravidin-coated biotin-PEG coverslips; 50 mM HEPES pH 7.5, 50 mM NaCl, 2 mM MgCl2; 22 ms per frame; 23 °C
RhoGDI1 (Homo sapiens) = RhoGDI1 (Homo sapiens) (UniProt P52565); conditions: cited from earlier work
Sequence of UniProt P52565 (P52565 2-204): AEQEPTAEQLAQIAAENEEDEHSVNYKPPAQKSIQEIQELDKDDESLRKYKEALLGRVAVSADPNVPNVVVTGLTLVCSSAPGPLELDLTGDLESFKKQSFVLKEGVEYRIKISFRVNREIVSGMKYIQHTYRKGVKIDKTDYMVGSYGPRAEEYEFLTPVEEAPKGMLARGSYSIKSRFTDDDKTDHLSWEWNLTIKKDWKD

[3] = molecular target: geranylgeranylated Cy3-Cdc42 (human) (UniProt P60953)
[4] = molecular target: prenylated A647-Cdc42 (human) (UniProt P60953); remark: listed apart in the source
[5] = molecular target: prenylated A647-Cdc42 (human) (UniProt P60953); remark: listed apart in the source

Sequence of Cdc42 (P60953 1-188): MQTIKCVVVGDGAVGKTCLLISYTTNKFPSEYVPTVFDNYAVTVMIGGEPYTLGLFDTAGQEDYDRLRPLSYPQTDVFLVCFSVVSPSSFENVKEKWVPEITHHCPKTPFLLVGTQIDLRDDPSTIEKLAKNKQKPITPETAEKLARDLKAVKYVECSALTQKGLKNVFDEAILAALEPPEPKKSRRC

A488-2xwCRIB (from UniProt P42768 201-268; P42768 201-268) (domain or fragment)
dwell time of A647-Cdc42 on the membrane inside the GEF-containing region in microfluidic flow-out, with 2xwCRIB [1]: 1.4 fold

A647-RhoGDI1 (from UniProt P19803 1-204) (natural protein)
fraction of Cdc42 molecules co-recruited with RhoGDI1 [2]: 63%

Cdc42 (from UniProt P60953)
Kd (RhoGDI1 (Homo sapiens)): 0.09 nM

RhoGDI1 (unlabeled) (from UniProt P19803 1-204) (natural protein)
maximal rate of nucleotide exchange (Cy5-GDP to unlabeled GDP) from Cy5-GDP:Cy3-Cdc42:RhoGDI1 complexes (100 nM) with ITSNcat-His10 pre-bound to PM LUVs, GEF concentration varied [3]: 0.0002 s⁻¹
concentration of Cdc42:RhoGDI1 complexes against free Cdc42 needed to reach similar levels of membrane-bound GTPase on SLBs (600 nM vs 5.5 nM) [4]: 100 fold

full-length Atto488-N-WASP (from UniProt O00401 1-505) (natural protein)
patterning index of A647-Cdc42 (inside against outside of GEF-containing areas) after GEF addition in the presence of Atto488-N-WASP [5]: 1.35
